In article PMC10040874 (2023):

Legend:
[1] = molecular target: Drosophila melanogaster CNNM CBS-pair domain, GST-tagged (D. melanogaster, UniProt A0A0B7P9G0 362-515); assay: ITC
[2] = molecular target: D. rerio CNNM CBS-pair domain (D. rerio); assay: ITC
[3] = molecular target: D. rerio CNNM CBS-pair domain (D. rerio); assay: ITC; remark: listed apart in the source
[4] = molecular target: T1, CBS-pair domain of a C. elegans CNNM protein (the one of two expressed that bound with 13 μM affinity) (C. elegans); assay: ITC; CNNM3
T1 chain: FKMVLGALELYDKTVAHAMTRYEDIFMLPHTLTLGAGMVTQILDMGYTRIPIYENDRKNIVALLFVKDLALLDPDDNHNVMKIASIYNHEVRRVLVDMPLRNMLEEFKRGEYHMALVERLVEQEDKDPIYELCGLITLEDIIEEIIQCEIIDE

[5] = molecular target: T2, CBS-pair domain of a C. elegans CNNM protein (the one of two expressed that bound with 1 μM affinity) (C. elegans); assay: ITC; CNNM1
T2 chain: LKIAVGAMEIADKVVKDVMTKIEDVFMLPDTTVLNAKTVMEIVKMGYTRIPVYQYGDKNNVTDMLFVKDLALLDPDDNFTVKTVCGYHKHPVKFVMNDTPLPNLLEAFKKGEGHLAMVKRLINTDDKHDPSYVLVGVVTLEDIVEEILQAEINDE

[6] = molecular target: T2, CBS-pair domain of a C. elegans CNNM …; assay: ITC; CNNM1
[7] = molecular target: T3, Toxoplasma gondii CNNM CBS-pair domain (T. gondii); assay: ITC
T3 chain: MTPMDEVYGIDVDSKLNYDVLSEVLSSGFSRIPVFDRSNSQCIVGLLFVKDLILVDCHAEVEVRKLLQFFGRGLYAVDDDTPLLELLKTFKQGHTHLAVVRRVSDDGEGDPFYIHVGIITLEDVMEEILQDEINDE

[8] = molecular target: T3, Toxoplasma gondii CNNM CBS-pair domain; assay: ITC
[9] = molecular target: T4, human CNNM3 CBS-pair domain (human, UniProt Q8NE01 309-452); assay: ITC
T4 sequence (Q8NE01 309-452): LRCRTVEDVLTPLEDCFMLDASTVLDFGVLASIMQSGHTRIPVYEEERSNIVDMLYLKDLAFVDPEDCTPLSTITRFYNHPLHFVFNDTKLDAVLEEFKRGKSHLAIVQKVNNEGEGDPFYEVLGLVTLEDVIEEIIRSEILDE

[10] = molecular target: T4, human CNNM3 CBS-pair domain; assay: ITC; remark: listed apart in the source
[11] = molecular target: M. brevicollis CNNM CBS-pair domain (M. brevicollis); assay: ITC
[12] = molecular target: M. brevicollis CNNM CBS-pair domain (M. brevicollis); assay: ITC; remark: listed apart in the source

Sequence of D. rerio CNNM CBS-pair domain (D. rerio) (chain, as listed by the source): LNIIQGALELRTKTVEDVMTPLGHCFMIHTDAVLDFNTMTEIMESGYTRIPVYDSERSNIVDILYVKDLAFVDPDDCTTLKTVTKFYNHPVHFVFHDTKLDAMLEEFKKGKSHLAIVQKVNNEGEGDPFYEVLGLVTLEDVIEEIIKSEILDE
Sequence of Drosophila melanogaster CNNM CBS-pair domain, GST-tagged (A0A0B7P9G0 362-515): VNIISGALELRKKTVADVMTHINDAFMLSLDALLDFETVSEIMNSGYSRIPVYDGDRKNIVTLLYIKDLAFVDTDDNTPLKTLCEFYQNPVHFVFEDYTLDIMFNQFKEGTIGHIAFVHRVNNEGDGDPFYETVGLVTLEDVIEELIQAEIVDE

B1: Drosophila melanogaster PRL (wild-type) (enzyme)
chain: MSITMRQKDLRPAPALIEYKGMKFLITDRPSDITINHYIMELKKNNVNTVVRVCEPSYNTDELETQGITVKDLAFEDGTFPPQQVVDEWFEVLKDKYQQNPEACVAVHCVAGLGRAPVLVALALIELGLKYEAAVEMIRDKRRGAINAKQLSFLEKYKPKARLKHKNGHKNSCSVQ
Ka [1]: 2.84e+06 M⁻¹

B2: D. rerio PRL (enzyme)
chain: MARMNRPAPVEVCYKNMRFLITHNPTNSTLSSFIEDLKKYGVTTVVRVCEITYDKTPLEKNGITVVDWPFDDGAPPPSKVVEDWLSLLKRRFIEEPGCCVAVHCVAGLGRAPVLVAVALIESGMKYEDAIQFIRQKRRGAINSKQLTYLEKYRPKQRLRYKHPHIFKNK
modifications: Table S2 says CNNM4 only; the choice of cnnm4a over cnnm4b is assumed
Ka [2]: 5.84e+07 M⁻¹ | Kd [3]: 17 nM

B3: Caenorhabditis elegans PRL (enzyme)
chain: MSAAVQKRASTNTVAATTYFKPAPSEIAWGKMRFLITDRPNNSSIQSYIEELEKHGARAVVRVCEPTYDTLALKEAGIDVLDWQFSDGSPPPPEVIKSWFQLCMTSFKEHPDKSIAVHCVAGLGRAPVLVAIALIEAGMKYEDAVEMIRTQRRGALNQKQLKFLETYKANGELRRLRGNVDGKQKSCCIQ
modifications: Assigning the 13 uM binder to CNNM3 is inferred from listing order (Figure 4 not in text)
Kd [4]: 970 nM

B4: Caenorhabditis elegans PRL (enzyme)
chain: B3 chain
modifications: Table S2: only CNNM1 (376-530) and CNNM3 (375-527) gave protein; assigning the 1 uM binder to CNNM1 is inferred from listing order (Figure 4 not in text)
Ka [5]: 76100 M⁻¹ | Kd [6]: 13000 nM

B5: Toxoplasma gondii PRL (enzyme)
chain: MNEASSCLSPEEPRSCDNREEGTTRELRSGSHMGKGKLGHSPTTSHSELTREGSSVDCGRRGGNEEKTEEKRSEKAGAERECERKTQRPRFDGDGSSLSPRSNASRGSACSTRSCESHEKVGRTLSGDSTGRDGVCSVSSARQPSLRRKSAAEEVGREVKVDGKALDSQIELVRTKNRGKSEVTRLGRGAGSACAVSVSPLGTARHVPSGRQPSERRQSAKPLTKLSSSSSSHNKTTMVPTVMNTPTRIEAGRQKFLIFDAPSQENLPAYIEEMRAYEVTDLVRTCERTYDDKTVLASGIRPHELIFPDGEAPPDDVIDEWLTLCNAVSQQRGAIAIHCVAGLGRAPVLVAIALIEKGMDPMDAIMFIRERRKGAINRRQLQFLKGYKRRSNYKKCCGGR
Ka [7]: 134000 M⁻¹ | Kd [8]: 7400 nM

B6: human PRL2 (enzyme)
chain: MNRPAPVEISYENMRFLITHNPTNATLNKFTEELKKYGVTTLVRVCDATYDKAPVEKEGIHVLDWPFDDGAPPPNQIVDDWLNLLKTKFREEPGCCVAVHCVAGLGRAPVLVALALIECGMKYEDAVQFIRQKRRGAFNSKQLLYLEKYRPKMRLRFRDTNGH
Ka [9]: 3.63e+07 M⁻¹ | Kd [10]: 28 nM

B7: M. brevicollis PRL (enzyme)
chain: MARNHISKISHKNMRFLITDRPSDATVEDYVRVLQQENVVALCRVCEPSYDVSKLKDNGIEVHDWAFQDGAPPPDEVIDNWLRLCRETFAQHPNGFVAVHCVAGLGRAPVLVALSLIEAGMSSEDAVLFIREKRHGAINRRQLQFLQDYKRRGKAKG
Ka [11]: 3.24e+06 M⁻¹ | Kd [12]: 300 nM
